The text below walks through data of patent US20250236673A1 (Ablynx, published 2025).

One test deals with CD8. As to the kind of experiment: kinetics, method not stated in Example 3.
The target of test [1] is T1, recombinant human CEACAM5 (human, UniProt P06731 35-685, limits assumed).
T1 construct: Immobilised by amine coupling on a CM5 chip
T1 sequence (looked up): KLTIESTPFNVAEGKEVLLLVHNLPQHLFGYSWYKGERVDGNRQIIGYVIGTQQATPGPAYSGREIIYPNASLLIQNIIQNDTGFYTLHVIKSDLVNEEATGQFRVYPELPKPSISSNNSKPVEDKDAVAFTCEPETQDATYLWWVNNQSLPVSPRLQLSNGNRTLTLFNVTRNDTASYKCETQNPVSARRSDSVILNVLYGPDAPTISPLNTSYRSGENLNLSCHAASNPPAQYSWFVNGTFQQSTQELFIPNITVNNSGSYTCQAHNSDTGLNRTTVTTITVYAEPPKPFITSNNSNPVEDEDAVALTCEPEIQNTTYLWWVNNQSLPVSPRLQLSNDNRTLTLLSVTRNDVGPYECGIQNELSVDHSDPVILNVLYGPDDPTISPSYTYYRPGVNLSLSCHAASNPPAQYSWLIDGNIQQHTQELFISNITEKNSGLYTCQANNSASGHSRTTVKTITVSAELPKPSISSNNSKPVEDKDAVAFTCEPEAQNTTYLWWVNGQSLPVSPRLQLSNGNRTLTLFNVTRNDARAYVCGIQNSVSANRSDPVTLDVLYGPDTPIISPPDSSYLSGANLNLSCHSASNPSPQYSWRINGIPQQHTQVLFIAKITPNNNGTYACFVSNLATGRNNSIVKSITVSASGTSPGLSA
As to the kind of experiment: SPR on CEACAM5 (Example 2; same values as in Table 13).

Test [2] has as its target T1, recombinant human CEACAM5. As to the kind of experiment: SPR Biacore 8K+, CEACAM5 amine-coupled on CM5, ISVD analyte, 1:1 fit.
The target of a further test is soluble human TNFα (human, UniProt P01375 77-233). As to the kind of experiment: cell-based or functional assay.
Sequence of soluble human TNFα (P01375 77-233 limits assumed): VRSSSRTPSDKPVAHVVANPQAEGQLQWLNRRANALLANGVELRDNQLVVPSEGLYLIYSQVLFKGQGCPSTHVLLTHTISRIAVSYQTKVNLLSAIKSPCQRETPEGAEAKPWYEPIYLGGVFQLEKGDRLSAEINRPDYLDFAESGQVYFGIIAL
The target of test [3] is T2, human serum albumin (human, UniProt P02768 25-609).
T2 construct: Immobilised by amine coupling on a C1 chip; also called HSA
T2 sequence (P02768 25-609 limits assumed): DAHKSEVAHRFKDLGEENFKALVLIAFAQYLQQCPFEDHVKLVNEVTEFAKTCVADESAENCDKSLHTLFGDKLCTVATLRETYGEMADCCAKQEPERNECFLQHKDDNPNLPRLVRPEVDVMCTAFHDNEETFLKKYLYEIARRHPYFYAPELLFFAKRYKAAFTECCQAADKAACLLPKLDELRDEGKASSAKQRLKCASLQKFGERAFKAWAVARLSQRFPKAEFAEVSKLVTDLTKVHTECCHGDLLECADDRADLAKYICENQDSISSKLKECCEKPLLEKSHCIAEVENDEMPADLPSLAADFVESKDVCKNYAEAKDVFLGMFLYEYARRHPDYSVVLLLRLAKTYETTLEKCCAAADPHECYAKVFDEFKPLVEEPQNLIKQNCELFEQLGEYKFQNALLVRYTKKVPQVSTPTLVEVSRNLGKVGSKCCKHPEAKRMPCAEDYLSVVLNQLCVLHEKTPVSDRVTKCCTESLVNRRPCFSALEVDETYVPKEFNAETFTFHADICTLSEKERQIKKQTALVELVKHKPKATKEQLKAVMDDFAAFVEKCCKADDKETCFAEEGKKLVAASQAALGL
As to the kind of experiment: SPR on HSA (Example 2; same values as in Table 13).

Test [4] addresses T2, human serum albumin. As to the kind of experiment: SPR Biacore 8K+, HSA amine-coupled on C1 chip, ISVD analyte, 1:1 fit.

Values joined by “and” are separate entries in the source; they are usually repeats but may differ in a detail not shown here. Identical values can stand only once.

B1: A044301298 (VHH)
VHH: EVQLVESGGGVVQPGGSLRLSCAASGFTFEDYAIGWFRQAPGREREEVSCIRTYDEQTYYADSVRGRFTISRDNARNTVSLQMNSLRPEDTALYYCAAGSYYACAYYSRPDPSEGHVDLDYWGQGTLVTVSS
In the test with CD8, B1 gave a Kd of 0.113 nM, a koff of 0.000418 s⁻¹ and an on-rate (kon) of 3.69e+06 M⁻¹ s⁻¹.

B2: A044301152 (VHH)
VHH: EVQLVESGGGVVQPGGSLRLSCAASGFTFEDYAIGWFRQAPGKEREEVSCIRTYDEQTYYADSVKGRFTISRDNAKNTVSLQMNSLRPEDTALYYCAAGSYYACAYYSRPDPSEGHVDLDYWGQGTLVTVSS
In the case of B2, in the test with CD8, the Kd came out at 0.122 nM, the koff came to 0.000412 s⁻¹ and the kon came to 3.37e+06 M⁻¹ s⁻¹.

B3: T028501789 (VHH)
VHH: EVQLVESGGGVVQPGGSLRLSCAASGLTFSTYTMGWFRQAPGKEREFVAAIIWSGSNTYYADSVKGRFTISRDNAKNTVYLQMNSLRPEDTALYYCAAQHFGPIGLTTRGYHYWGQGTLVTVSS
notes: also called A031500384; A0315007E07(L11V, S76N, N82bS, E83R, V89L, H91Y, N101H)
As to B3, in test [1], the Kd worked out at 1.24 nM, the koff was 0.000885 s⁻¹ and the kon amounted to 716000 M⁻¹ s⁻¹. For the same molecule, in test [2], the Kd was determined as 1.24 nM, the koff worked out at 0.000885 s⁻¹ and the kon stood at 716000 M⁻¹ s⁻¹.

B4: T031200262 (VHH)
VHH: DVQLVESGGGVVQPGGSLKLSCTASGFTFSTADMGWFRQAPGKGKEFVARISGIDGTTYYDEPVKGRFTISRDKSKNTVYLQMNSLKPEDTALYYCRSPRYADQWSAYDYWGKGTLVTVSS
With B4, the “IC50, inhibition of human TNFα-induced NFkB activation (HEK293_NFkB-NLucP Nano luciferase reporter)” value (shortened to “IC50, inhibition”) with soluble human TNFα was 6.43e-11 M (inferred; column head prints 'Average of ka (1/Ms)').

B5: T031200261 (VHH)
VHH: DVQLVESGGGVVQPGGSLKLSCTASGFTFSTADMGWFRQAPGKGREFVARISGIDGTTYYDEPVKGRFTISKDKSKNTVYLQMNSLKPEDTALYYCRSPRYADQWSAYDYWGKGTLVTVSS
For the molecule B5, the “IC50, inhibition” value with soluble human TNFα was 1.91e-10 M (inferred; column head prints 'Average of ka (1/Ms)').

B6: T031200263 (VHH)
VHH: DVQLVESGGGVVQPGGSLKLSCTASGFTFSTADMGWFRQAPGKGKEFVARISGIDGTTYYDEPVKGRFTISKDKSKNTVYLQMNSLKPEDTALYYCRSPRYADQWSAYDYWGKGTLVTVSS
For B6, the “IC50, inhibition” value with soluble human TNFα was 1.92e-10 M (inferred; column head prints 'Average of ka (1/Ms)').

B7: T031200258 (VHH)
VHH: DVQLVESGGGVVQPGGSLKLSCTASGFTFSTADMGWFRQAPGKGREFVARISGIDGTTYYDEPVKGRFTISRDNSKNTVYLQMNSLKPEDTALYYCRSPRYADQWSAYDYWGKGTLVTVSS
On to B7, for which the “IC50, inhibition” value with soluble human TNFα was 6.09e-11 M (inferred; column head prints 'Average of ka (1/Ms)').

B8: T031200259 (VHH)
VHH: DVQLVESGGGVVQPGGSLKLSCTASGFTFSTADMGWFRQAPGKGREFVARISGIDGTTYYDEPVKGRFTISKDNSKNTVYLQMNSLKPEDTALYYCRSPRYADQWSAYDYWGKGTLVTVSS
Regarding B8, in the test with soluble human TNFα, the “IC50, inhibition” value is 4.82e-11 M (inferred; column head prints 'Average of ka (1/Ms)').

B9: T031200260 (VHH)
VHH: DVQLVESGGGVVQPGGSLKLSCTASGFTFSTADMGWFRQAPGKGREFVARISGIDGTTYYDEPVKGRFTISRDKSKNTVYLQMNSLKPEDTALYYCRSPRYADQWSAYDYWGKGTLVTVSS
Regarding B9, the “IC50, inhibition” value in the test with soluble human TNFα was 5.34e-11 M (inferred; column head prints 'Average of ka (1/Ms)').

B10: T031200257 (VHH)
VHH: DVQLVESGGGVVQPGGSLKLSCTASGFTFSTADMGWFRQAPGKGREFVARISGIDGTTYYDEPVKGRFTISRDKSKNTVYLQMNSLKPEDTALYYCRSPRYADQWSAYDYWGQGTLVTVSS
As for B10, the “IC50, inhibition” value in the test with soluble human TNFα is 4.93e-11 M (inferred; column head prints 'Average of ka (1/Ms)').

B11: A016600058 (VHH)
VHH: DVQLVESGGGVVQPGGSLRLSCTASGFTFSTADMGWFRQAPGKGREFVARISGIDGTTYYDEPVKGRFTISRDNSKNTVYLQMNSLRPEDTALYYCRSPRYADQWSAYDYWGQGTLVTVSS
As for B11, the “IC50, inhibition” value with soluble human TNFα is 3.86e-11 M (inferred; column head prints 'Average of ka (1/Ms)') and 2.97e-11 M (inferred; column head prints 'Average of ka (1/Ms)').

B12: T028501805 (VHH)
VHH: EVQLVESGGGVVQPGGSLRLSCAASGFTFRSFGMSWVRQAPGKGPEWVSSISGSGSDTLYADSVKGRFTISRDNSKNTLYLQMNSLRPEDTALYYCTIGGSLSRSSQGTLVTVSS
notes: also called ALB00622; HSA006A06(K83R)
As for B12, in the test with human serum albumin [3], binding was characterised by a dissociation constant (Kd) of 1.28 nM, the koff is 0.000992 s⁻¹ and the kon was found to be 772000 M⁻¹ s⁻¹. In the test with human serum albumin [4], this molecule came in with a Kd of 1.28 nM, a koff of 0.000992 s⁻¹ and a kon of 772000 M⁻¹ s⁻¹.
